This is an account of results in US20250382379A1 (VISTERRA, published 2025).

In test [1] the target is T1, human CD138 (syndecan-1), membrane-bound on CD138+ multiple myeloma cell lines (human, UniProt P18827 23-310).
T1 construct: whole, on cells; also called membrane CD138; cell surface CD138
T1 sequence (looked up): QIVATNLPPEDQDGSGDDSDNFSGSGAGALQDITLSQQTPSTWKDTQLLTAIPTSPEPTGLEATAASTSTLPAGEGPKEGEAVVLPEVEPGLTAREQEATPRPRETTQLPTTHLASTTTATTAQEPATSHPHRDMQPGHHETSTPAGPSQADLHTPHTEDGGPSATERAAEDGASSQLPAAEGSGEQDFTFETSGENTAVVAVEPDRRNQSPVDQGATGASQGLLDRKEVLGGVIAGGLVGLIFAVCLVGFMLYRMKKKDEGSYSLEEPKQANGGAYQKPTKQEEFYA
Nature of the test: flow cytometry on U266 cells, geometric MFI. On the technique in general: In flow cytometry, cells or beads pass a laser one at a time.

For test [2], the target named is T1, human CD138 (syndecan-1), …. Nature of the test: flow cytometry on U266 cells, maximal MFI, reference BB4. The procedure: The antibodies were then serially diluted three-fold. Antibody binding to membrane CD138 was evaluated using the CD138+ human lymphoblastic myeloma cell line U266 and quantified by flow cytometry. Antibody cell binding was reported as geometric mean fluorescence intensity (MFI). Binding data were plotted using nonlinear regression analysis and a 4-parameter curve fit.
Antibody cell binding was reported as geometric mean fluorescence intensity (MFI). Binding data were plotted using nonlinear regression analysis and a 4-parameter curve fit.

Test [3] addresses T2, human CD138 derived peptide 2A (integrin binding domain), biotinylated (human, biotinylated (site not stated)).
T2 construct: also called Pep2a
T2 peptide: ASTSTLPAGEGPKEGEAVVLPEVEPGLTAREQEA
Nature of the test: antigen capture ELISA, antibody coated, biotinylated peptide titrated from 50 nM. The procedure:
(§1) 1 or select human CD138 derived peptides (Table 3) was evaluated by antigen capture ELISA. […] The immobilized monoclonal antibodies were tested for binding to biotinylated recombinant CD138 extracellular domain or peptides 2A, peptide 6A in 5-fold serial antigen dilutions starting at starting at a 50 nM concentration. HRP-conjugated Anti-biotin secondary antibody (1:10000 dilution) was used for detection.
(In general: In an ELISA, binding on a coated surface is turned into a signal by an enzyme label.)

Test [4] has as its target T3, human CD138 derived peptide 6A (membrane proximal region), biotinylated (human, biotinylated (site not stated)).
T3 construct: also called Pep6a
T3 peptide: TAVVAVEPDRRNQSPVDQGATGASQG
Described as above. The protocol:
as §1

The target of test [5] is T4, extracellular domain of soluble human CD138 (amino acids 18-251 of SEQ ID NO 1), biotinylated recombinant (human, UniProt P18827 18-251, biotinylated (site not stated)).
T4 construct: also called CD138 extracellular domain; soluble extracellular domain of human CD138
T4 sequence: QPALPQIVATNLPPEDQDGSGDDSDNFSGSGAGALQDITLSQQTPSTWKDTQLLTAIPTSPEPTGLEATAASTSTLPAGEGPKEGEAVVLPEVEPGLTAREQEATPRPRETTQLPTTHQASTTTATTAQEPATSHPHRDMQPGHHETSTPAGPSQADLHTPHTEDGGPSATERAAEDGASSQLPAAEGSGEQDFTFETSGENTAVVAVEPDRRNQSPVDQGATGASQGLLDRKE
As to the kind of experiment: antigen capture ELISA, antibody coated, biotinylated CD138 extracellular domain, reference BB4. The protocol: as §1

The target of test [6] is T1, human CD138 (syndecan-1), …. Nature of the test: flow cytometry on MM1.S, LP-1 and RPMI 8226 cells.

B1: mouse chimeric anti-CD138 antibody 2810 (antibody, V domains shown)
VH: QVQLHQPGTSLVKPGASVKLSCKASGYSFSSYYMHWVKQRPGQGLEWIGTIHPSDSTTNYNQKFKGKATLTVDKSSRTAYMQLNSLTFEDSAVYYCANFVYWGQGTSVTVSS
VL: DIVITQDELSNPVTSGDSVSISCRSSKSLLYKDGKTYLNWFLQRPGQSPQLLIYVVSTRASGVSDRFSGSGSGTDFTLEISRVKAEDVGVYYCQQLVEYPYTFGGGTKLEIK
notes: Described as a mouse-human chimeric antibody; also called mAb2810
B1: the binding result in test [1] is “binds”.

B2: humanized anti-CD138 antibody mAb 4320 (antibody, human IgG1, kappa, V domains shown)
VH: QVQLVQSGAEVKKPGASVKVSCKASGYSFSSYYMHWVRQAPGQGLEWMGTIHPSDSTTNYNQKFQGRVTMTVDTSTRTAYMELSSLRSEDTAVYYCANFVYWGQGTTVTVSS
VL: DIVMTQTPLSLSVTPGQPASISCKSSKSLLYKDGKTYLNWFLQKPGQSPQLLIYVVSTRASGVPDRFSGSGSGTDFTLKISRVEAEDVGVYYCQQLVEYPYTFGQGTKLEIKR
notes: Produced with 2FF in the medium to reduce core fucose of the N297 glycan
For B2, the “total cell surface binding (maximal MFI) relative to antibody BB4” value in test [2] is ~25 % greater than BB4. Further, the binding result in test [3] and in test [4] was “binds” throughout. The “fold higher binding affinity in comparison to BB4” value in test [5] was ~6 fold.

B3: humanized anti-CD138 antibody variant 3821 (antibody, human IgG1, V domains shown)
VH: QVQLVQSGAEVKKPGSSVKVSCKASGYSFSSYYMHWVRQAPGQGLEWMGTIHPSDSTANYNQKFKGRVTITVDKSTSTAYMELSSLRSEDTAVYYCANFVYWGQGTTVTVSS
VL: DIVMTQTPLSLSVTPGQPASISCKSSKSLLYKDGKTYLNWFLQKPGQSPQLLIYVVSTRASGVPDRFSGSGSGTDFTLKISRVEAEDVGVYYCQQLVQYPYTFGQGTKLEIK
notes: also called mAb 3821
As to B3, the binding result in test [6] is “binds”.

B4: humanized anti-CD138 antibody variant 4326 (antibody, human IgG1, V domains shown)
VH: QVQLVQSGAEVKKPGASVKVSCKASGYSFSSYYMHWVRQAPGQGLEWMGTIHPSDSTTNYNQKFQGRVTMTVDTSTRTAYMELSSLRSEDTAVYYCANFVYWGQGTTVTVSS
VL: DIVMTQSPDSLAVSLGERATINCKSSQSLLYKDGKTYLNWFQQKPGQPPKLLIYVVSTRASGVPDRFSGSGSGTDFTLTISSLQAEDVAVYYCQQLVEYPYTFGQGTKLEIK
notes: also called mAb 4326
As for B4, in test [6], the binding result was “binds”.

B5: humanized anti-CD138 antibody variant 3820 (antibody, human IgG1, V domains shown)
VH: QVQLVQSGAEVKKPGSSVKVSCKASGYSFSSYYMHWVRQAPGQGLEWMGTIHPSDSTANYNQKFKGRVTITVDKSTSTAYMELSSLRSEDTAVYYCANFVYWGQGTTVTVSS
VL: DIVMTQTPLSLSVTPGQPASISCKSSKSLLYKDGKTYLNWFLQKPGQSPQLLIYVVSTRASGVPDRFSGSGSGTDFTLKISRVEAEDVGVYYCQQLVEYPYTFGQGTKLEIK
notes: also called mAb 3820
B5: the binding result in test [6] is given as “binds”.

B6: humanized anti-CD138 antibody variant 4321 (antibody, human IgG1, V domains shown)
VH: QVQLVQSGAEVKKPGASVKVSCKASGYSFSSYYMHWVRQAPGQGLEWMGTIHPSDSTTNYNQKFQGRVTMTVDTSTRTAYMELSSLRSEDTAVYYCANFVYWGQGTTVTVSS
VL: DIVMTQTPLSLSVTPGQPASISCKSSKSLLYKDGKTYLNWFLQKPGQSPQLLIYVVSTRASGVPDRFSGSGSGTDFTLKISRVEAEDVGVYYCQQLVQYPYTFGQGTKLEIK
notes: also called mAb 4321
For B6, the binding result in test [6] is “binds”.

B7: humanized anti-CD138 antibody variant 4521 (antibody, human IgG1, V domains shown)
VH: QVQLVQSGAEVKKPGASVKVSCKASGYNFASYYMHWVRQAPGQGLEWMGTIHPSDSTTNYNQKFKGRVTMTVDTSTSTAYMELSSLRSEDTAVYYCANFVYWGQGTTVTVSS
VL: DIVMTQTPLSLSVTPGQPASISCKSSKSLLYKDGKTYLNWFLQKPGQSPQLLIYVVSTRASGVPDRFSGSGSGTDFTLKISRVEAEDVGVYYCQQLVQYPYTFGQGTKLEIK
notes: also called mAb 4521
As for B7, the binding result in test [6] is given as “binds”.
